The data set has as its system NF-kB (human). The data set can be described thus: cell_activity. The note with it: lipid transfection of 1 pmol.

The source of these data is US20230104113.

For the sequence “AAAAAAAAAAGAUCUUGAAACUGUUUUAAGGUUGGCCGAUCUUAAAAAA [NF-kB aptamer circular RNA]”, under “A549 MTT day 2 (89% day 1), with doxorubicin 79% day 1, 73% day 2”, the activity worked out at 86 % viability.
On to “AAAAAAAAAAGAUCUUGAAACUGUUUUAAGGUUGGCCGAUCUUAAAAAA [NF-kB aptamer linear RNA]”, for which the activity (5' monophosphate, A549 MTT day 2 (101% day 1), with doxorubicin 78% day 2) was determined as 97 % viability.
